Test results as given in PMC2697983.

System: GST-QKI-5
Assay: EMSA
Conditions: EMSA: 20 mM HEPES pH 7.4, 330 mM KCl, 10 mM MgCl2, 0.1 mM EDTA, 0.1 mg/ml heparin, 0.01% IGEPAL CA630, room temperature, 1 h; SELEX: 50 mM Tris-HCl pH 8.0 …

| Substance | Kd [nM] |
| --- | --- |
| QRE-2:wt | 121 |
| TGE-wt | 300 |

Biological target: T1, His-SLM-2 (UniProt Q9R226)
T1 sequence: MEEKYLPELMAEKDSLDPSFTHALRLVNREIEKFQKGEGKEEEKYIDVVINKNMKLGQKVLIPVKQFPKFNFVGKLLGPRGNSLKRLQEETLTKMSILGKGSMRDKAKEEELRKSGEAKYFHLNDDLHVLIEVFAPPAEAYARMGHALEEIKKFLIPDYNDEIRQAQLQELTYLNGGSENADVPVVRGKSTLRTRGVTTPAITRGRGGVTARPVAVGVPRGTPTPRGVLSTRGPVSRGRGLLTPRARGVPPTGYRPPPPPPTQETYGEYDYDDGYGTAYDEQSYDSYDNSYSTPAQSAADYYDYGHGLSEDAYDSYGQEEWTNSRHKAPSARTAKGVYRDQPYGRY
Assay: EMSA
Conditions: EMSA: 20 mM HEPES pH 7.4, 330 mM KCl, 10 mM MgCl2, 0.1 mM EDTA, 0.1 mg/ml heparin, 0.01% IGEPAL CA630, room temperature, 1 h; SELEX: 50 mM Tris-HCl pH 8.0 …

| Substance | Kd [nM] |
| --- | --- |
| GGUUAAUUUGGAUUUCUUGAGCUUAUGGCUUUU [SRE-7d8] | > 1000 |
| UAAUUUGGAUUUCUUGAGCUUAUGGCU [SRE-7d7] | > 1000 |
| GGUUCUAUAAAAAUUUUCACUAUCCUACCCCCAGUUCC [SRE-4m3] | > 1000 |
| GGUUCUAUACCCCCUUUCACUAUCCUAUUAACAGUUCC [SRE-4m4] | > 1000 |
| GGAUUUCUUGAGCUUAUGGCUUUUAAU [SRE-7d6] | > 1000 |
| AUCUUGUUCUCCGCUUAAUUUGGAUUUCUUGAGCUUAUGGCUUUUAAUAUGGG [SRE-7m1] | 45.2 |
| GGUUAAUUUGGAUUUCUUGAGCUUAUG [SRE-7d3] | > 1000 |
| GGUUAAUUUGGAUUUCUUGAGCUUAUGGCUUUUAAUAUGG [SRE-7d9] | 22.3 |
| UUUGGAUUUCUUGAGCUUAUGGCUUUU [SRE-7d4] | > 1000 |
| GGUUCUACCCCAAUUUUCACUAUCCUACCCCCAGUUCC [SRE-4m1] | > 1000 |
| GGUUCUACCCCAAUUUUCACUAUCCUAUUAACAGUUCC [SRE-4m2] | > 1000 |
| AUCGUGGUGGGCGGUUAAUUUGGAUUU [SRE-7d1] | > 1000 |
| GGUUCUAUAAAAAUUUUCACUAUCCUAUUAACAGUUCC [SRE-4wt] | 16.3 |
| UUUCUUGAGCUUAUGGCUUUUAAUAUGG [SRE-7d5] | > 1000 |
| GUGGGCGGUUAAUUUGGAUUUCUUGAG [SRE-7d2] | > 1000 |
| GGUUCCCCUGGAUUUCUUGAGCUUAUGGCUUUCCCCAUGG [SRE-7d9m1] | > 1000 |
| AUCGUGGUGGGCGGUUAAUUUGGAUUUCUUGAGCUUAUGGCUUUUAAUAUGGG [SRE-7wt] | 30.3 |
| GGUUCCUUUGGAUUUCUUGAGCUUAUGGCUUUUAAUAUGG [SRE-7d9m2] | 400 |
| AUCGUGGUGGGCGGUUAAUUUGGAUUUCUUGAGCUUAUGGCUCGACGCAUGGG [SRE-7m3] | > 1000 |
| AUCGUAAUAAACAAUUAAUUUGGAUUUCUUGAGCUUAUGGCUUUUAAUAUGGG [SRE-7m2] | 14.5 |
| GGUUAAUCUGGAUUUCUUGAGCUUAUGGCUUUUCCUAUGG [SRE-7d9m3] | 400 |

System: MBP-GLD-1 (C. elegans)
Assay: EMSA
Conditions: EMSA: 20 mM HEPES pH 7.4, 330 mM KCl, 10 mM MgCl2, 0.1 mM EDTA, 0.1 mg/ml heparin, 0.01% IGEPAL CA630, room temperature, 1 h; SELEX: 50 mM Tris-HCl pH 8.0 …

| Substance | Kd [nM] |
| --- | --- |
| TGE-wt | 104 |
